Measured values as given in PMC12381214, “Multi-state catch bond formed in the Izumo1:Juno complex that initiates human fertilization” (Nature Communications, 2025).

B1: human Izumo1 ectodomain, wild type (Izumo1-His10-SpyTag-LPETGG) (domain or fragment)
chain: CVICDPSVVLALKSLEKDYLPGHLDAKHHKAMMERVENAVKDFQELSLNEDAYMGVVDEATLQKGSWSLLKDLKRITDSDVKGDLFVKELFWMLHLQKETFATYVARFQKEAYCPNKCGVMLQTLIWCKNCKKEVHACRKSYDCGERNVEVPQMEDMILDCELNWHQASEGLTDYSFYRVWGNNTETLVSKGKEATLTKPMVGPEDAGSYRCELGSVNSSPATIINFHVTVLP
modifications: glycosylated (sites not given); SpyTag joined by an isopeptide bond to a SpyCatcher polyprotein
notes: Izumo1, human, ectodomain (ECD), UniProt Q8IYV9; the stretch between the HEM signal peptide and His10 in the printed construct; also called HEM-Izumo1-His10-SpyTag-LPETGG; Izumo1-GFP; source: Sf9 (ExpiSF) cells, baculovirus, secreted, purified (Ni resin, SEC); not shown: HEM secretion signal peptide, N-terminal, cleaved; His10, C-terminal, kept; SpyTag, C-terminal, kept; LPETGG sortase motif, …
B2: human Izumo1 ectodomain K150A (Izumo1K150A-His10-SpyTag-LPETGG) (domain or fragment)
chain: CVICDPSVVLALKSLEKDYLPGHLDAKHHKAMMERVENAVKDFQELSLNEDAYMGVVDEATLQKGSWSLLKDLKRITDSDVKGDLFVKELFWMLHLQKETFATYVARFQKEAYCPNKCGVMLQTLIWCANCKKEVHACRKSYDCGERNVEVPQMEDMILDCELNWHQASEGLTDYSFYRVWGNNTETLVSKGKEATLTKPMVGPEDAGSYRCELGSVNSSPATIINFHVTVLP
modifications: glycosylated (sites not given); SpyTag joined by an isopeptide bond to a SpyCatcher polyprotein
notes: Izumo1, human, ectodomain (ECD), UniProt Q8IYV9, with K150A; also called HEM-Izumo1K150A-His10-SpyTag-LPETGG; source: Sf9 (ExpiSF) cells, baculovirus, secreted, purified (Ni resin, SEC); not shown: HEM secretion signal peptide, N-terminal, cleaved; His10, C-terminal, kept; SpyTag, C-terminal, kept; LPETGG sortase motif, C-terminal, kept
B3: human Izumo1 ectodomain H157A (Izumo1H157A-His10-SpyTag-LPETGG) (domain or fragment)
chain: CVICDPSVVLALKSLEKDYLPGHLDAKHHKAMMERVENAVKDFQELSLNEDAYMGVVDEATLQKGSWSLLKDLKRITDSDVKGDLFVKELFWMLHLQKETFATYVARFQKEAYCPNKCGVMLQTLIWCKNCKKEVAACRKSYDCGERNVEVPQMEDMILDCELNWHQASEGLTDYSFYRVWGNNTETLVSKGKEATLTKPMVGPEDAGSYRCELGSVNSSPATIINFHVTVLP
modifications: glycosylated (sites not given); SpyTag joined by an isopeptide bond to a SpyCatcher polyprotein
notes: Izumo1, human, ectodomain (ECD), UniProt Q8IYV9, with H157A; also called HEM-Izumo1H157A-His10-SpyTag-LPETGG; source: Sf9 (ExpiSF) cells, baculovirus, secreted, purified (Ni resin, SEC); not shown: HEM secretion signal peptide, N-terminal, cleaved; His10, C-terminal, kept; SpyTag, C-terminal, kept; LPETGG sortase motif, C-terminal, kept
B4: human Izumo1 ectodomain E71A (Izumo1E71A-His10-SpyTag-LPETGG) (domain or fragment)
chain: CVICDPSVVLALKSLEKDYLPGHLDAKHHKAMMERVENAVKDFQELSLNADAYMGVVDEATLQKGSWSLLKDLKRITDSDVKGDLFVKELFWMLHLQKETFATYVARFQKEAYCPNKCGVMLQTLIWCKNCKKEVHACRKSYDCGERNVEVPQMEDMILDCELNWHQASEGLTDYSFYRVWGNNTETLVSKGKEATLTKPMVGPEDAGSYRCELGSVNSSPATIINFHVTVLP
modifications: glycosylated (sites not given); SpyTag joined by an isopeptide bond to a SpyCatcher polyprotein
notes: Izumo1, human, ectodomain (ECD), UniProt Q8IYV9, with E71A; also called HEM-Izumo1E71A-His10-SpyTag-LPETGG; source: Sf9 (ExpiSF) cells, baculovirus, secreted, purified (Ni resin, SEC); not shown: HEM secretion signal peptide, N-terminal, cleaved; His10, C-terminal, kept; SpyTag, C-terminal, kept; LPETGG sortase motif, C-terminal, kept
B5: human Izumo1 ectodomain R160A (Izumo1R160A-His10-SpyTag-LPETGG) (domain or fragment)
chain: CVICDPSVVLALKSLEKDYLPGHLDAKHHKAMMERVENAVKDFQELSLNEDAYMGVVDEATLQKGSWSLLKDLKRITDSDVKGDLFVKELFWMLHLQKETFATYVARFQKEAYCPNKCGVMLQTLIWCKNCKKEVHACAKSYDCGERNVEVPQMEDMILDCELNWHQASEGLTDYSFYRVWGNNTETLVSKGKEATLTKPMVGPEDAGSYRCELGSVNSSPATIINFHVTVLP
modifications: glycosylated (sites not given); SpyTag joined by an isopeptide bond to a SpyCatcher polyprotein
notes: Izumo1, human, ectodomain (ECD), UniProt Q8IYV9, with R160A; also called HEM-Izumo1R160A-His10-SpyTag-LPETGG; source: Sf9 (ExpiSF) cells, baculovirus, secreted, purified (Ni resin, SEC); not shown: HEM secretion signal peptide, N-terminal, cleaved; His10, C-terminal, kept; SpyTag, C-terminal, kept; LPETGG sortase motif, C-terminal, kept

Tests used:
Settings in all cases: both partners purified
[1] = molecular target: T1, human Juno ectodomain, wild type (Juno-His10-SpyTag-LPETGG) (human, glycosylated (sites not given); SpyTag joined by an isopeptide bond to a SpyCatcher polyprotein); assay: flow cytometry-based bead-binding assay; Juno held on 3.75 µm polystyrene beads through the ybbR AFM-handle; Izumo1 labelled with SpyCatcher-GFP, 5-fold dilution series of 7 dilutions from 100x the expected KD, 3 h, 0.1% tween 20 in TBS-G (20 mM Tris-HCl, 300 mM NaCl, 10% glycerol, pH 8.0); Hill equation fitted
T1 construct: Juno, human, ectodomain (ECD), UniProt A6ND01; the stretch between the HBM signal peptide and His10 in the printed construct; the printed construct has a D between the signal's ...YIYA and G20 that may stay on the mature protein; also called Folr4; Izumo1r; source: Sf9 (ExpiSF) cells, baculovirus, secreted, purified (Ni resin, SEC); not shown: HBM secretion signal peptide, N-terminal, cleaved; …
T1 sequence (chain, as listed by the source): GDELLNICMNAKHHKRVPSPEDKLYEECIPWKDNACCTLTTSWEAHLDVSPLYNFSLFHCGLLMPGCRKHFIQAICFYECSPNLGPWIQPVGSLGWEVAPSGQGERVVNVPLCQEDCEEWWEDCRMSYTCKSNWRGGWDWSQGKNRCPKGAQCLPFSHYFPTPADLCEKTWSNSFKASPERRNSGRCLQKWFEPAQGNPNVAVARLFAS

[2] = molecular target: T2, human Juno ectodomain H177Q, infertility-associated variant (JunoH177Q-His10-SpyTag-LPETGG) (human, H177Q (stands in the printed letters), glycosylated (sites not given); SpyTag joined by an isopeptide bond to a SpyCatcher polyprotein); assay: as above
T2 construct: Juno, human, ectodomain (ECD), UniProt A6ND01, natural variant H177Q found in patients; also called HBM-JunoH177Q-His10-SpyTag-LPETGG; source: Sf9 (ExpiSF) cells, baculovirus, secreted, purified (Ni resin, SEC); not shown: HBM secretion signal peptide, N-terminal, cleaved; His10, C-terminal, kept; SpyTag, C-terminal, kept; LPETGG sortase motif, C-terminal, kept
T2 sequence (chain, as listed by the source with the stated changes): as the sequence (chain, as listed by the source) above, with H158Q counted along it

[3] = molecular target: T1, human Juno ectodomain, wild type …; assay: AFM single-molecule force spectroscopy (constant speed); Izumo1 on the cantilever and Juno on the cover glass, each covalently held by its C-terminus through a ddFLN4-ELP-ybbR handle; contact 0.2 s, retraction at 800, 1600, 3200, 6400 nm·s^−1; PBS pH 7.4

Binder | Kd [1] [nM] | Kd [2] [nM] | binding result [3]
B1 | 45 | 64 | –
B2 | 110 | – | –
B3 | – | – | binds
B4 | – | – | binds
B5 | – | – | binds
